Results reported in patent CN113388035A (MABWELL SHANGHAI BIOTECHNOLOGY CO LTD; SHANGHAI PUMING …, dated 2021).
Where a chain is given by its changes, count along the chain named.

Assays:
[1] = target: T1, 人TSLP (human thymic stromal lymphopoietin) protein (human, UniProt Q969D9 29-159); experiment: BLI (Fortebio), antibody captured on AMC probe, 100nM TSLP, 1:1 fit
T1 construct: also called hTSLP; 人TSLP蛋白

[2] = target: T1, 人TSLP (human thymic stromal …); experiment: BLI (Fortebio), method of Example 2, antibody on probe, TSLP in solution
人IL7 protein = target: T2, 人IL7 protein (human, UniProt P13232 26-177); experiment: ELISA, IL7 coated at 1ug/ml, HRP-goat anti-human IgG
T2 construct: also called 人IL7蛋白
T2 sequence (looked up): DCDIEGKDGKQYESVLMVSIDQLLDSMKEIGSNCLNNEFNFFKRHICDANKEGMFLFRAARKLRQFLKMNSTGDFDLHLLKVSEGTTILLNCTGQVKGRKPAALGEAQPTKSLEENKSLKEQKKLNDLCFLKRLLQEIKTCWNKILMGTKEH

[3] = target: T1, 人TSLP (human thymic stromal …); experiment: BLI (Fortebio), method of Example 2, antibody on probe, TSLP in solution; remark: listed apart in the source

B1: IgG D01 (murine anti-human TSLP monoclonal antibody, clone D01) (antibody, V domains shown)
VH: QVQLQQSGAELVRPGTSVKVSCKASGYAFTNYFIDWVKQRPGQGLEWIGVINPGSGGTNFNEKFKGKATLTADKSSSTAYMQLSSLTSEDSAVYFCARESEVGEGFAYWGQGTLVTVSA
VL: DIQMTQTSSSLSASLGDRVTISCRASQDISNYLNWYQQKPDGTVKLLIYYTSTLHSGVPSRFSGSGSGTDYSLTISNLEQEDIATYFCQQGNTLPYTFGGGTKLEIK
notes: Murine hybridoma IgG, kappa light chain amplified; also called 克隆D01
Kd [1]: 2.83 nM
koff [1]: 0.000225 s⁻¹
kon [1]: 79600 M⁻¹ s⁻¹

B2: xiD01 (anti-human TSLP chimeric antibody) (antibody, human IgG2, V domains shown)
VH: B1 VH
VL: B1 VL
notes: also called 抗人TSLP嵌合抗体蛋白xiD01; not shown: human kappa light chain constant region
Kd [2]: 0.985 nM
koff [2]: 0.000356 s⁻¹
kon [2]: 361000 M⁻¹ s⁻¹

B3: hzD01Hm5Lm4 (humanized, affinity-matured anti-human TSLP antibody) (antibody, human IgG2, V domains shown)
VH: EVQLVQSGAEVKKPGASVKVSCKASGYTFTNYFIDWVRQAPGQGLEWIGVIDAFSGGSNFNEKFKGRVTMTRDTSTSTAYMELSSLRSEDTAVYFCARESEVGEGFAYWGQGTLVTVSS
VL: DIQMTQSPSSLSASVGDRVTISCRASQDISNYLNWYQQKPGKAPKLLIYYTSTLHSGVPSRFSGSGSGTDYTLTISSLQPEDIATYFCQQGNTLPYTFGQGTKLEIK
notes: not shown: human kappa light chain constant region
binding result (人IL7 protein): no binding
Kd [3]: 0.0637 nM
Response [3]: 0.368
koff [3]: 3.98e-05 s⁻¹
kon [3]: 625000 M⁻¹ s⁻¹

B4: hzD01Lm12 (humanized, affinity-matured anti-human TSLP antibody) (antibody, human IgG2, V domains shown)
VH: B3 VH with D52N, A53P, F54G, S58T
VL: B3 VL with G91F, N92D, T97P
notes: also called hzD01m12; not shown: human kappa light chain constant region
binding result (人IL7 protein): no binding
Kd [3]: 0.0983 nM
Response [3]: 0.426
koff [3]: 6.08e-05 s⁻¹
kon [3]: 619000 M⁻¹ s⁻¹
